experiment: soluble fraction after stress (log2 fold change); higher = more stays soluble; pooled small domains, quantitative proteomics; details: stress: pH 4
Procedure, shortened: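 After pH 4 stress, pooled custom libraries of small protein domains were quantified with high-throughput quantitative proteomics. Aggregation propensity is taken from the fold change in each domain's soluble amount following the acid stress. The scale is log2, where higher values mean more stayed soluble.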

| Sequence | soluble fraction (log2) |
| --- | --- |
| HMKESFAQLFSLLTPTEQKVAALISQGFSNKDIAAKMFISLSTVKTHTNHIFAKMGVANRNALVAKVNN | -0.0677 |
| HMKESRFDYDAVLLYSDKDSITEVKDAVQHLTKEFGSVFTTKKIPEKATFGKLFRIEKGEVNIIEDN | -1.22 |
| HMKESRLFRILYYLLQHKKATAPELAEEFEVSVRTIYRDIDYISSAGVPIYATQGKDGGIAILDSF | -0.81 |
| HMKETLSINSTDFEVRRSSRRKRISVGFDTGTETFFIAAPTKLAGTDILRILGPQISRLMDRLT | -0.808 |
| HMKEVDERPWGKYEVLLDAPDVKVKRITVNPGQRLSYQYHEKRAEVWTVVSGILTIILEDDKLFRG | 0.0694 |
| HMKFIPPSLEEARAYFVEKGSSEPEAEKFVNHFDSIGWKVGRARTPMKKWKSAANNWIANNREWNQ | -0.166 |
| HMKFKDYYAALGIDRNADLEQIKKAYRKLARQYHPDVSKAPDAEARFKDAAEAYATLKNPEKRAAYDELGS | 0.22 |
| HMKFLHLADLHLGKRVNGFSMLEDQAYILRQILTILDDERPDGVLIAGDVYDKPVPPTEAVELLD | -0.632 |
| HMKFLYQKAREEIISLIQDGEIKPSEKIMPERELSELLGYNRMTIKKAINSLVAEGVLMKKRGAGTFLLG | -0.45 |
| HMKFLYQQVYQDIKDKITSAQYQFGDLLPSEREIGEEYHVDRTTVRKAFSLLVDEGLVEKRAGKGSVVIS | -0.52 |
| HMKFTELEQLMLKREINTLADIARVLKTTPQAVSNWKARDQIPYHIVAKINASINKDSNDSSLSI | -0.782 |
| HMKFTSEKDISLLELVKAKMGFVSNTKARNVIKIGQIMVSGKVIKIPSTLIKPGTEVELARRV | 0.32 |
| HMKFYKMIDESDEKIENPEIMIFQIIELVSSTTYSAIINKEPVDVETLKPYLYQTIRTIIINHQS | -0.582 |
| HMKGEKVTKIELSNFIKFLINDLENKGFFNPPEKKDSMIDNIYSIYNKMTLTKKELNMLWGMHKKLK | -0.676 |
| HMKGERHNKILELIQQHAIDRQEDLLRYLKEAGFQVTQATVSRDIRELHLVKVAAGGGQYRYVSAAAAS | -0.255 |
| HMKGIHDYITKDGLRVVKVHYSADPDKDVTTVEGKKWMAKALLGYPGGLEGAKWRREMEIDFNA | -0.258 |
| HMKGILVPASSIISDGDKNYVWTVEKGKAKKVEVTLGNADAENQEISSGLTKDSKVITNPTDSLKDGQEV | 0.269 |
| HMKGKDLQDAVVTVVGGAENWNAIRAWAQASASDSEKREINAAFQSGKLMATMMAERLALAYQQSG | 0.0105 |
| HMKGKITTNWVSLTSDLGWLRSELYSSGSVLEERISNEGLIELHLENFQNDLIKLLEVEGFDLIKE | -1.73 |
| HMKGQLVVFPNPASSNDMVRFNKNISFSIFDITGHLVDTKRNVNELSVGNLEAGTYILRTEQGDVLRMVI | -0.904 |
| HMKGRPTTAIITDERTNLRSGPGATNKTIAQAGAGEKLAIIDEKDGWYQVSRAGINGWVAGWVIDVAW | -0.945 |
| HMKGSIFLDEATKMVDNSALKSLNTFLEEYARETNNQIFLISHQETPAEVTQIKLKKVGGETSYE | -0.0644 |
| HMKGSPFSQLPKEKKKRILQAAIEVFAQNDYKHASTDEIASRAGISKGLLFYYFHDKKTLYFYLGEYLKR | 0.173 |

| Sequence | soluble fraction (log2) |
| --- | --- |
| HMKGTLPEMITSREEVVLKFMVNGWDAKRIASELDISVLTVRKHIANIYEKLHVQSKAEIISMAHQQKWFN | -0.731 |
| HMKGTSIELIVPQDIAGLRLDQVLAKLLPQWSRSRLQSWINEKHITVNGQTTTAKQKLWGNETIQIIPPI | -0.0718 |
| HMKHEFSEEWLDWIKSNIADGQNKNGLFKVLLNHGYAYDAVREVMQYEPTVPLDELVDPLRA | -0.953 |
| HMKHFNDEELDGFAGLKSDDYNEEQVELFRNIFEELHPDEIIEWTESLRRRGIEIPSSLKDEVVMMIN | -1.69 |
| HMKHFTYEEMELMSIYDPGTREGLIANLEEMRGYLEPDETELRELTDSALEKLRELSDADYEQLELI | -1.48 |
| HMKHMTMYEAAKIAKEVGAPKLWLTHYSPSMTRPEEFMDDVRKIFPAAYAAKDGWTMELNFDEG | -0.385 |
| HMKHRTQMDIQQLPAIEGKGGFEYKISIIHLSTRIKYSEIHDNYNTTTIAKVYENAIERLPPF | -1.13 |
| HMKHSLNHLGLWLLPELSRRDIQLREFAHLLGTTSQGLSDLLRGQRFSSHTLAQWQLRFQEKLDEIDQAS | -0.236 |
| HMKHTVSVDRLQPGVFVSLGGLSWLDHPFLLNRFRLTDHDQIKVLRSLGVKEIEWDPTRSTAQPLPE | -0.724 |
| HMKIAPRTAENQQLRKMILEIYTTSKKRVGPAKVRRMLLRDYGISISIGRVYRLMSTMNLPKMS | 0.22 |
| HMKIDLPIWLNKKAWEAWVEYKKERKQKLTPSIIKFQLRILEKNKEDHPEIIRNSITNGWTGLFPLK | -0.347 |
| HMKIEDSNTIKLKANQAYKTHYYSEAIKLYDELLTKYEPNSEAIKLNLAHAHFKAKGFAAASKLYT | 0.22 |
| HMKIELTDQQKSLVVDEWNKGEANPPSLLQLIRLAYPDQPHLDGRSKEGKAVKAFLATRDINPLA | -0.0382 |
| HMKIETVENPLLERTEISALFDSKSGSLTRKEAIDLISKKARIDSSTVYAIKLSNSSGSTRIIGLFY | 0.00271 |
| HMKIIDDIQEFAGVTKTQNTFFHIFNHLHQNGKQLILTSDRAPVMLQGMEERLLTRFKWGLVAELE | 0.158 |
| HMKIKKIWFDGDYIYGMDERNNTYRQSLLWYSKLRNASAEERERYTFSTIGIHWRELDEDVSFESF | -1.78 |
| HMKIKLQATEQQRKTLDELYVQLKKLEPTSKEDLSLLYRLENPHLVSKQEAQGLISIAIGRVGSLAIEQQ | 0.258 |
| HMKINKQHLAFQIFGIRAKLGLSMEQFGELLGANKSSVSGWERGTVVPSSQRLKKIAELGKISLAELLTP | 0.276 |
| HMKINVQETEVYRYLLERADRLYSMILGEERENLMERTRFFEKEVAKASLPHLPKLYDEFSIYLDRLERG | -0.555 |
| HMKIPYGELIKLLNAAAPKLQDAQGWMDMEAAGQFIGSRWSYLDYGFKDWPDSFKTVHGLEIQGQRMRLA | -0.306 |
| HMKIQISGSQRIDENVVVKVAGLSFPQSLLSLEPGQIESKLMQELPVQEVSVQRRLLPPGLDIQLVE | -0.246 |
| HMKIQTYEDFRNAYPDIQGSLFGSAERYKTDLDWGDVAAKYDADEELKNVRNIFQLVRRYEQKYS | -0.643 |
| HMKISIPQEYFEIYNVLKQRPMHINEISKILKKPVSEISGTISLMEIEGYITKLTTDQYVLKKI | -0.644 |

| Sequence | soluble fraction (log2) |
| --- | --- |
| HMKITADQEIETAINYFKKSIAEKGWKGVNPDEFKQMNDYLSETFGYSATIKFQKALDEQGLMVDE | -0.429 |
| HMKITININIETLSHHIKQSGVPLGRLQESVPDYNEIVTGNKSPTYQQLEKISKLIRVPLGLLVIESPL | -0.451 |
| HMKITLAESVYERIRRDIITNQLKPGEKINIRELSTRYEASETPIRLALNRLASENIIEHFPRQGMRVK | -0.0624 |
| HMKIVPEPGTVLIREYQEERHEVTVTLDGAFDYKGTLYSSLSEIARLITGTRWSGPVFFGLRS | -0.353 |
| HMKIYDQVVDRIKDRISKGDMPQGSALPPERQLIDELNVSRSSLREGFRILEMMGLIESIPGKGRFVRTSR | -0.619 |
| HMKKAIYPGSFDPLTLGHIDIIKRASGIVDELVVGVLNNSAKNSLFSLDERVSMIEEMTKDLPNVSVTSFD | -0.0125 |
| HMKKEDFLEILRDYLKKGFSEDEVMDILRDYEEYFVDGIIEGKSEIEIIQSLGSPKEIANELLAES | -0.754 |
| HMKKEQVIVPNVVGDTYDVALRKLTDAKLKVGETFPADREGHQGVIEKQSPAAGETVDEDTPVALFFKV | -0.384 |
| HMKKERITWDERLERFAKYITENESLPYPSSKEHAWFEENKALYDAGELESVRAQSFSFLLKILRRMNLI | -0.449 |
| HMKKGATVSGVIVEKTKKSLIIDLGAKTEGVVADKEFEFAIDFVKELKKGDEVKAIVISTDNDKGQVVLSL | ≥ 0.43 |
| HMKKHALFTLFKHHNANGTTVWYARFWDDATQRYAIARSTGVLAQGKRERHDEAITVAREMASSIQFS | 0.264 |
| HMKKHAPSLMRQIRRELKEGKSPESLLSKAKLISDSYYRSLSFYLLIPYLSPNSKQFQEAISLAGKDID | -0.216 |
| HMKKKSYIVSFATDEDAQRFAREGFEVISLSGRQITVSLKGEMMPLVKALGSYQVVGLETVA | -0.72 |
| HMKKLPDDANDIIERVSSRLAQKFRFGYHTIDDMKQQAALFAWEGIYDSWDDSRPLENFLWIHVRNRLYN | 0.18 |
| HMKKLTGVQKAAILMIALGPDISSSIIKRLPENMVERITYEIANMTKITAQQRNDILKEFMDMTVAQ | -0.479 |
| HMKKNTEALDYYKKAGANFPEDEVISSEYLFRAAQLQEVLGKTDEAVAIYKDIKAKYPTTEIGLNVDKFIL | -0.181 |
| HMKKQLKSEAVADELRRKILSGGFPDKRLPRKDELTEYFQVSQKTVEAALKMLTAEGLIRGVKGTGIFVNG | 0.156 |
| HMKKQLTISDGDWAGKVSSMLEDMGVINSASEFDKYLSDNGYSNVIKSGTYDVSPEDTFQELAEKIT | -1.05 |
| HMKKRDAEIMLQREFKLTEAIAMVRDRDIQELLPIALYFKVNINQPTAEIRYNLLNIAKSKTQEFIEAFD | -1.03 |
| HMKKRDANSQGTRLILFYMLQRLHTEYKLQGFVTYNQRRSFREIYDAYHALGGNGFGTAMWEEVKELDLK | -0.0682 |
| HMKKTAAKVLGESEGKPVTVQSGRYGPYVQLGSIRATLPKDLEQDDVTLDRALELISAKAERAGK | 0.0406 |
| HMKKTDFNVENYDIEELAAILNFKYVPLNQGLIRDRIKDMKQRFKNKPEYIKFFTDVEIKLVNNLNLFN | -1.01 |
| HMKKTFSKSSVMEAIFRDIPNITIPNAHEVYTLIKNISVMNKRKSITSEDIEKAYDALGLTP | 0.145 |
